From paper PMC5019495 come the findings set out here.

One test addresses Siz1^(167–449) (yeast) (UniProt Q04195).
The target in test [1] is Siz1^(167–449)-ΔN18Smt3^K19R/D68RΔGG97/98-L-E-His6 (yeast) (UniProt Q04195).
For test [2], the target named is Siz1^(167–449)-ΔN18Smt3^K19RΔGG97/98-L-E-His6 (yeast) (UniProt Q04195).
The next test addresses Siz1^(167–508) (yeast) (UniProt Q04195).
The target in test [3] is Siz1^(167–508)-ΔN18Smt3^K19R/D68RΔGG97/98-L-E-His6 (yeast) (UniProt Q04195).
Chain of Siz1^(167–508)-ΔN18Smt3^K19R/D68RΔGG97/98-L-E-His6 (yeast) (Q04195 whole entry, looked up, stated change not applied, tested part not stated): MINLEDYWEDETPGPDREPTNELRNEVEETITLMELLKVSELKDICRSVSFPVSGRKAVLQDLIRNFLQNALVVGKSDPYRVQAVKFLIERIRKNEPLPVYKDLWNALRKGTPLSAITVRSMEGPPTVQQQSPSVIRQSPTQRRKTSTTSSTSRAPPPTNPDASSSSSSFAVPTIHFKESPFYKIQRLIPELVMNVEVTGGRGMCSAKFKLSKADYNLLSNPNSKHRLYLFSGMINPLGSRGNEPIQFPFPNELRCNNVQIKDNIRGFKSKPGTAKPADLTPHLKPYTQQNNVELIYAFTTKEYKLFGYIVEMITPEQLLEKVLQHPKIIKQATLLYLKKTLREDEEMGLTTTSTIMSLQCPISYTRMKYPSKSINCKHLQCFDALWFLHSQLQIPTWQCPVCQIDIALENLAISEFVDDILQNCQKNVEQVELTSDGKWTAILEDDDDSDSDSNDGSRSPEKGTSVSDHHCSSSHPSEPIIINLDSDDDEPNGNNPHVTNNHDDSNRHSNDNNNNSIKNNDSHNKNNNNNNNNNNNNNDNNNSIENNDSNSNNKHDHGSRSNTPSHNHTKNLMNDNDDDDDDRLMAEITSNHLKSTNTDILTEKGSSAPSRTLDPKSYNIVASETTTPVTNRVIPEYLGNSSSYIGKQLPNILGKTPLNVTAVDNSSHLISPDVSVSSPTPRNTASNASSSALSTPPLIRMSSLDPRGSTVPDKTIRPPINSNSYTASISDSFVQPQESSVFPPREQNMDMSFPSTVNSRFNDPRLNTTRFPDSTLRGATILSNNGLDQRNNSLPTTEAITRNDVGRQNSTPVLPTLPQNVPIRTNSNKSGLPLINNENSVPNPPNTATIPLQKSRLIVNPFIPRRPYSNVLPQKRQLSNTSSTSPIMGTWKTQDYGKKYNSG

Chain of Siz1^(167–508) (yeast) (Q04195 167-508): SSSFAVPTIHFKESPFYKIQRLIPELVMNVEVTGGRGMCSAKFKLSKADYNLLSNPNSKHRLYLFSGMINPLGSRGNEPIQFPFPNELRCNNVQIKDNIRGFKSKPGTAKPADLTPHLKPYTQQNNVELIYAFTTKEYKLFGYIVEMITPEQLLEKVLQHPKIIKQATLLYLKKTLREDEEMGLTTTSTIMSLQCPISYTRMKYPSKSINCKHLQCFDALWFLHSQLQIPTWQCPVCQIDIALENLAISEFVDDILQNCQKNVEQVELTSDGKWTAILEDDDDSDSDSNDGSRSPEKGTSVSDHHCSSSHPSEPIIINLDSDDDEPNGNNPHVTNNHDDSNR
Chain of Siz1^(167–449) (yeast) (Q04195 167-449): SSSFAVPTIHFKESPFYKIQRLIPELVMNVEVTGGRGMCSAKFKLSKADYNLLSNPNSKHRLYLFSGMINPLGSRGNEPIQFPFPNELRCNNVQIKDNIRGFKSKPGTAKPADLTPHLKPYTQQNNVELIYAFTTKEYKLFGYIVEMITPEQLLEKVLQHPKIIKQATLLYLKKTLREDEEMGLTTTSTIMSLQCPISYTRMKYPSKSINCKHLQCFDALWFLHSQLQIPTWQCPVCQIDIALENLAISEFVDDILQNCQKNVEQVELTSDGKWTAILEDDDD
Chain of Siz1^(167–449)-ΔN18Smt3^K19R/D68RΔGG97/98-L-E-His6 (yeast) (Q04195 whole entry, looked up, stated change not applied, tested part not stated): as the sequence (Q04195 whole entry, looked up, stated change not applied, tested part not stated) above
Chain of Siz1^(167–449)-ΔN18Smt3^K19RΔGG97/98-L-E-His6 (yeast) (Q04195 whole entry, looked up, stated change not applied, tested part not stated): as above

Regarding “Ubc9^K153R-Smt3^K11C/D68R-Alexa488 thioester (from UniProt P50623 1-157; Q12306 1-101) (complex)”, in the test with Siz1^(167–449) (yeast), the Km of the E2-SUMO thioester, K127 product, no additional SUMO came out at 1.23 µM; the Km of the E2-SUMO thioester, K127 product, with 1.5-fold excess Δ18Smt3ΔGGHIS is 1.84 µM; the Km of the E2-SUMO thioester, K164 product, no additional SUMO amounted to 0.91 µM; the Km of the E2-SUMO thioester, K164 product, with 1.5-fold excess Δ18Smt3ΔGGHIS was found to be 1.44 µM. Also, in test [1], the Km of the E2-SUMO thioester, K127 product is 4.4 µM and the Km of the E2-SUMO thioester, K164 product was 1.02 µM. Moreover, the Km of the E2-SUMO thioester, K127 product in test [2] came to 0.48 µM. Besides, in the test with Siz1^(167–508) (yeast), the Km of the E2-SUMO thioester, K127 product, no additional SUMO worked out at 2.34 µM; the Km of the E2-SUMO thioester, K127 product, with 1.5-fold excess Δ18Smt3ΔGGHIS is 1.15 µM; the Km of the E2-SUMO thioester, K164 product, no additional SUMO was determined as 0.91 µM. Besides, in test [3], the Km of the E2-SUMO thioester, K127 product is 2.07 µM.
